Literature values as cited in PMC3505014.

Columns and labels:
NRXN1β ECD = NRXN1β ECD (UniProt P58400); assay: surface plasmon resonance
Cbln1 = Cbln1 (UniProt P23435); assay: surface plasmon resonance

Cbln1, sequence (P23435 22-193): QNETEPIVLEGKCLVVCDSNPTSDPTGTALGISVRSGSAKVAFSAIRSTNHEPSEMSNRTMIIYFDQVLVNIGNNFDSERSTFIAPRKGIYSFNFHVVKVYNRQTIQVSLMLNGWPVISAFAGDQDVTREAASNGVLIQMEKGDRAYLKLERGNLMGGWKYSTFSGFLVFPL
UniProt P58400, sequence (P58400 51-396): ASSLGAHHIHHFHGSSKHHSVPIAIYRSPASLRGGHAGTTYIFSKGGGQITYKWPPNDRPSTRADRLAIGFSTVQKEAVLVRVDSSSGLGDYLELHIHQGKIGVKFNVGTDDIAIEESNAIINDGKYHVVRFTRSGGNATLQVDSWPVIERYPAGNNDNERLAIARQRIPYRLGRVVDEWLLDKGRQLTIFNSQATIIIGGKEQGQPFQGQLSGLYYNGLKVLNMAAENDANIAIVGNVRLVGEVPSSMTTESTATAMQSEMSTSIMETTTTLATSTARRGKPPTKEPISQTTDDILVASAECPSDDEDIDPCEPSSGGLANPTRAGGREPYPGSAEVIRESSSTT

| Substance | Kd (NRXN1β ECD) [nM] | Kd (Cbln1) [nM] |
| --- | --- | --- |
| Cbln1 (from UniProt P23435) | 0.17 | – |
| GluRδ2 (from UniProt O43424) | – | 16.5 |
